The chains are these.
B1: Far upstream element-binding protein 1, residues 184 to 257; numbered along this chain, Q96AE4 (parent)
chain: GNAVQEIMIPASKAGLVIGKGGETIKQLQERAGVKMVMIQDGPQNTGADKPLRITGDPYKVQQAKEMVLELIRD

± gives the uncertainty stated by the source.

Variants of B1 are the subject of this series. Put plainly: abundance fitness (aPCA) (normalised: wild type 0, dead -1); higher = more abundant; growth selection in yeast, the domain comes from the species named. The settings on record: Homo sapiens.
For GNAVQEIMIPASKAGLVIGFGGETIKQLQERAGVKMVMIQDGPQNTGADKPLRITGDPYKVQQAKEMVLELIRD, the abundance fitness was -0.07 ± 0.049. Consider GNAVQEIMIPASKAGLVIGCGGETIKQLQERAGVKMVMIQDGPQNTGADKPLRITGDPYKVQQAKEMVLELIRD, for which the abundance fitness is -0.14 ± 0.046. GNAVQEIMIPASKAGLVIGTGGETIKQLQERAGVKMVMIQDGPQNTGADKPLRITGDPYKVQQAKEMVLELIRD: the abundance fitness is -0.035 ± 0.033. Then GNAVQEIMIPASKAGLVIGDGGETIKQLQERAGVKMVMIQDGPQNTGADKPLRITGDPYKVQQAKEMVLELIRD, with 0.049 ± 0.043; and GNAVQEIMIPASKAGLVIGIGGETIKQLQERAGVKMVMIQDGPQNTGADKPLRITGDPYKVQQAKEMVLELIRD, with -0.129 ± 0.051. Consider GNAVQEIMIPASKAGLVIGPGGETIKQLQERAGVKMVMIQDGPQNTGADKPLRITGDPYKVQQAKEMVLELIRD, for which the abundance fitness is -0.026 ± 0.032. For the variant GNAVQEIMIPASKAGLVIGAGGETIKQLQERAGVKMVMIQDGPQNTGADKPLRITGDPYKVQQAKEMVLELIRD, the abundance fitness was 0.02 ± 0.031. Regarding GNAVQEIMIPASKAGLVIGMGGETIKQLQERAGVKMVMIQDGPQNTGADKPLRITGDPYKVQQAKEMVLELIRD, the abundance fitness is -0.112 ± 0.04. In the case of GNAVQEIMIPASKAGLVIGEGGETIKQLQERAGVKMVMIQDGPQNTGADKPLRITGDPYKVQQAKEMVLELIRD, the abundance fitness is -0.01 ± 0.036. Turning to GNAVQEIMIPASKAGLVIGSGGETIKQLQERAGVKMVMIQDGPQNTGADKPLRITGDPYKVQQAKEMVLELIRD, the abundance fitness was -0.042 ± 0.031.

With GNAVQEIMIPASKAGLVIGNGGETIKQLQERAGVKMVMIQDGPQNTGADKPLRITGDPYKVQQAKEMVLELIRD, the abundance fitness is -0.016 ± 0.049. In the case of GNAVQEIMIPASKAGLVIGGGGETIKQLQERAGVKMVMIQDGPQNTGADKPLRITGDPYKVQQAKEMVLELIRD, the abundance fitness is -0.105 ± 0.031.

Consider GNAVQEIMIPASKAGLVIGHGGETIKQLQERAGVKMVMIQDGPQNTGADKPLRITGDPYKVQQAKEMVLELIRD, for which the abundance fitness is -0.045 ± 0.044.

Regarding GNAVQEIMIPASKAGLVIVKGGETIKQLQERAGVKMVMIQDGPQNTGADKPLRITGDPYKVQQAKEMVLELIRD, the abundance fitness is -0.763 ± 0.043. Take GNAVQEIMIPASKAGLVICKGGETIKQLQERAGVKMVMIQDGPQNTGADKPLRITGDPYKVQQAKEMVLELIRD: the abundance fitness was -0.473 ± 0.056. For GNAVQEIMIPASKAGLVIQKGGETIKQLQERAGVKMVMIQDGPQNTGADKPLRITGDPYKVQQAKEMVLELIRD, the abundance fitness is -0.363 ± 0.043. In the case of GNAVQEIMIPASKAGLVIAKGGETIKQLQERAGVKMVMIQDGPQNTGADKPLRITGDPYKVQQAKEMVLELIRD, the abundance fitness was -0.339 ± 0.033. Then GNAVQEIMIPASKAGLVITKGGETIKQLQERAGVKMVMIQDGPQNTGADKPLRITGDPYKVQQAKEMVLELIRD, with -0.371 ± 0.039; and GNAVQEIMIPASKAGLVIFKGGETIKQLQERAGVKMVMIQDGPQNTGADKPLRITGDPYKVQQAKEMVLELIRD, with -0.519 ± 0.069. To GNAVQEIMIPASKAGLVIEKGGETIKQLQERAGVKMVMIQDGPQNTGADKPLRITGDPYKVQQAKEMVLELIRD belongs -0.297 ± 0.036. Then GNAVQEIMIPASKAGLVIKKGGETIKQLQERAGVKMVMIQDGPQNTGADKPLRITGDPYKVQQAKEMVLELIRD, with -0.445 ± 0.043; and GNAVQEIMIPASKAGLVIIKGGETIKQLQERAGVKMVMIQDGPQNTGADKPLRITGDPYKVQQAKEMVLELIRD, with -0.931 ± 0.11. For GNAVQEIMIPASKAGLVIDKGGETIKQLQERAGVKMVMIQDGPQNTGADKPLRITGDPYKVQQAKEMVLELIRD, the abundance fitness was -0.204 ± 0.046. Regarding GNAVQEIMIPASKAGLVIMKGGETIKQLQERAGVKMVMIQDGPQNTGADKPLRITGDPYKVQQAKEMVLELIRD, the abundance fitness was -0.551 ± 0.053. To GNAVQEIMIPASKAGLVIYKGGETIKQLQERAGVKMVMIQDGPQNTGADKPLRITGDPYKVQQAKEMVLELIRD belongs -0.685 ± 0.085; to GNAVQEIMIPASKAGLVISKGGETIKQLQERAGVKMVMIQDGPQNTGADKPLRITGDPYKVQQAKEMVLELIRD, -0.366 ± 0.034. Then GNAVQEIMIPASKAGLVIPKGGETIKQLQERAGVKMVMIQDGPQNTGADKPLRITGDPYKVQQAKEMVLELIRD, with -0.629 ± 0.047; and GNAVQEIMIPASKAGLVINKGGETIKQLQERAGVKMVMIQDGPQNTGADKPLRITGDPYKVQQAKEMVLELIRD, with -0.278 ± 0.059; and GNAVQEIMIPASKAGLVILKGGETIKQLQERAGVKMVMIQDGPQNTGADKPLRITGDPYKVQQAKEMVLELIRD, with -0.598 ± 0.039. GNAVQEIMIPASKAGLVIRKGGETIKQLQERAGVKMVMIQDGPQNTGADKPLRITGDPYKVQQAKEMVLELIRD: the abundance fitness was -0.438 ± 0.03. With GNAVQEIMIPASKAGLVIHKGGETIKQLQERAGVKMVMIQDGPQNTGADKPLRITGDPYKVQQAKEMVLELIRD, the abundance fitness was -0.376 ± 0.061. To GNAVQEIMIPASKAGLVQGKGGETIKQLQERAGVKMVMIQDGPQNTGADKPLRITGDPYKVQQAKEMVLELIRD belongs -0.058 ± 0.035; to GNAVQEIMIPASKAGLVSGKGGETIKQLQERAGVKMVMIQDGPQNTGADKPLRITGDPYKVQQAKEMVLELIRD, -0.09 ± 0.03; to GNAVQEIMIPASKAGLVYGKGGETIKQLQERAGVKMVMIQDGPQNTGADKPLRITGDPYKVQQAKEMVLELIRD, -0.106 ± 0.057. To GNAVQEIMIPASKAGLVVGKGGETIKQLQERAGVKMVMIQDGPQNTGADKPLRITGDPYKVQQAKEMVLELIRD belongs -0.018 ± 0.031; to GNAVQEIMIPASKAGLVTGKGGETIKQLQERAGVKMVMIQDGPQNTGADKPLRITGDPYKVQQAKEMVLELIRD, 0.011 ± 0.032; to GNAVQEIMIPASKAGLVRGKGGETIKQLQERAGVKMVMIQDGPQNTGADKPLRITGDPYKVQQAKEMVLELIRD, -0.104 ± 0.026.

The values are drawn from the Human Domainome abundance scans (Beltran et al. 2025).
